The RNAGym collection of RNA variant scans (doi:10.1093/molbev/msab373)

B1: Azoarcus group I ribozyme (parent)
chain: GUGCCUUGCGCCGGGAAACCACGCAAGGGAUGGUGUCAAAUUCGGCGAAACCUAAGCGCCCGCCCGGGCGUAUGGCAACGCCGAGCCAAGCUUCGGCGCCUGCGCCGAUGAAGGUGUAGAGACUAGACGGCACCCACCUAAGGCAAACGCUAUGGUGAAGGCAUAGUCCAGGGAGUGGCGAAAGUCACACAAACCGG

Variants of: B1
Assay: reverse-splicing fitness (ratio to wild type); higher = more active; in vitro selection; Mg2+ level not given
How it was run: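 An in vitro group I ribozyme library with randomized positions was T7-transcribed and gel-purified. In triplicate, 10 pmol RNA in EPPS pH 7.5 was reacted with 50 pmoles of a 30-nt RNA substrate for 1 h at 37 °C across several added MgCl2 levels (1–48 mM), then stopped with EDTA. Products were reverse transcribed from a substrate-complementary primer, PCR-amplified and sequenced (HiSeq 4000). Fitness is a variant's read proportion after selection over that before, normalised to wild type.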

Variant | reverse-splicing fitness
GUGCCUUGCGCCGGGAAACCACGCAAGGGAUGGUGUCAAAUUCGGCGAAACCUAAGCGCCCGCCCGGGCGUAUGGCAACGCGGAGCCAAGCUUCGGCGCCUGCGCCGAUGGAGGUGUAGGGACUAGACGGCACCCACCUAAGGCGAACGAUAUGGUGAAGGCAUAGUCAAGGGAGGGGCGAAAGUCACACAAACCGG [C82G A111G A120G A145G C150A C169A U176G] | 0.00774
GUGCCUUGCGCCGGGAAACCACGCAAGGGAUGGUGUCAAAUUCGGCGAAACCUAAGCGCCCGCCCGGGCGUAUGGCAACGCGGAGCCAAGCUUCGGCGCCUGCGCCGAUGGAGGUGUAGGGACUAGACGGCACCCACCUAAGGCGAACGAUAUGGUGAAGGCAUAGUCAAGGGAGCGGCGAAAGUCACACAAACCGG [C82G A111G A120G A145G C150A C169A U176C] | 0.0231
GUGCCUUGCGCCGGGAAACCACGCAAGGGAUGGUGUCAAAUUCGGCGAAACCUAAGCGCCCGCCCGGGCGUAUGGCAACGCGGAGCCAAGCUUCGGCGCCUGCGCCGAUGGAGGUGUAGGGACUAGACGGCACCCACCUAAGGCGAACGAUAUGGUGAAGGCAUAGUCAAGGGAGAGGCGAAAGUCACACAAACCGG [C82G A111G A120G A145G C150A C169A U176A] | 0.0204
GUGCCUUGCGCCGGGAAACCACGCAAGGGAUGGUGUCAAAUUCGGCGAAACCUAAGCGCCCGCCCGGGCGUAUGGCAACGCGGAGCCAAGCUUCGGCGCCUGCGCCGAUGGAGGUGUAGGGACUAGACGGCACCCACCUAAGGCGAACGGUAUGGUGAAGGCAUAGUCGAGGGAGCGGCGAAAGUCACACAAACCGG [C82G A111G A120G A145G C150G C169G U176C] | 0.0118
GUGCCUUGCGCCGGGAAACCACGCAAGGGAUGGUGUCAAAUUCGGCGAAACCUAAGCGCCCGCCCGGGCGUAUGGCAACGCGGAGCCAAGCUUCGGCGCCUGCGCCGAUGGAGGUGUAGGGACUAGACGGCACCCACCUAAGGCGAACGGUAUGGUGAAGGCAUAGUCGAGGGAGGGGCGAAAGUCACACAAACCGG [C82G A111G A120G A145G C150G C169G U176G] | 0.0063
GUGCCUUGCGCCGGGAAACCACGCAAGGGAUGGUGUCAAAUUCGGCGAAACCUAAGCGCCCGCCCGGGCGUAUGGCAACGCGGAGCCAAGCUUCGGCGCCUGCGCCGAUGGAGGUGUAGGGACUAGACGGCACCCACCUAAGGCGAACGGUAUGGUGAAGGCAUAGUCGAGGGAGAGGCGAAAGUCACACAAACCGG [C82G A111G A120G A145G C150G C169G U176A] | 0.0111
GUGCCUUGCGCCGGGAAACCACGCAAGGGAUGGUGUCAAAUUCGGCGAAACCUAAGCGCCCGCCCGGGCGUAUGGCAACGCGGAGCCAAGCUUCGGCGCCUGCGCCGAUGGAGGUGUAGGGACUAGACGGCACCCACCUAAGGCGAACGAUAUGGUGAAGGCAUAGUCGAGGGAGUGGCGAAAGUCACACAAACCGG [C82G A111G A120G A145G C150A C169G] | 0.0102
GUGCCUUGCGCCGGGAAACCACGCAAGGGAUGGUGUCAAAUUCGGCGAAACCUAAGCGCCCGCCCGGGCGUAUGGCAACGCGGAGCCAAGCUUCGGCGCCUGCGCCGAUGGAGGUGUAGGGACUAGACGGCACCCACCUAAGGCGAACGAUAUGGUGAAGGCAUAGUCAAGGGAGUGGCGAAAGUCACACAAACCGG [C82G A111G A120G A145G C150A C169A] | 0.0113
GUGCCUUGCGCCGGGAAACCACGCAAGGGAUGGUGUCAAAUUCGGCGAAACCUAAGCGCCCGCCCGGGCGUAUGGCAACGCGGAGCCAAGCUUCGGCGCCUGCGCCGAUGGAGGUGUAGGGACUAGACGGCACCCACCUAAGGCGAACGAUAUGGUGAAGGCAUAGUCUAGGGAGUGGCGAAAGUCACACAAACCGG [C82G A111G A120G A145G C150A C169U] | 0.0102
GUGCCUUGCGCCGGGAAACCACGCAAGGGAUGGUGUCAAAUUCGGCGAAACCUAAGCGCCCGCCCGGGCGUAUGGCAACGCGGAGCCAAGCUUCGGCGCCUGCGCCGAUGGAGGUGUAGGGACUAGACGGCACCCACCUAAGGCGAACGGUAUGGUGAAGGCAUAGUCUAGGGAGCGGCGAAAGUCACACAAACCGG [C82G A111G A120G A145G C150G C169U U176C] | 0.0129
GUGCCUUGCGCCGGGAAACCACGCAAGGGAUGGUGUCAAAUUCGGCGAAACCUAAGCGCCCGCCCGGGCGUAUGGCAACGCGGAGCCAAGCUUCGGCGCCUGCGCCGAUGGAGGUGUAGGGACUAGACGGCACCCACCUAAGGCGAACGGUAUGGUGAAGGCAUAGUCUAGGGAGGGGCGAAAGUCACACAAACCGG [C82G A111G A120G A145G C150G C169U U176G] | 0.00812
GUGCCUUGCGCCGGGAAACCACGCAAGGGAUGGUGUCAAAUUCGGCGAAACCUAAGCGCCCGCCCGGGCGUAUGGCAACGCGGAGCCAAGCUUCGGCGCCUGCGCCGAUGGAGGUGUAGGGACUAGACGGCACCCACCUAAGGCGAACGGUAUGGUGAAGGCAUAGUCUAGGGAGAGGCGAAAGUCACACAAACCGG [C82G A111G A120G A145G C150G C169U U176A] | 0.0127
GUGCCUUGCGCCGGGAAACCACGCAAGGGAUGGUGUCAAAUUCGGCGAAACCUAAGCGCCCGCCCGGGCGUAUGGCAACGCGGAGCCAAGCUUCGGCGCCUGCGCCGAUGGAGGUGUAGGGACUAGACGGCACCCACCUAAGGCGAACGAUAUGGUGAAGGCAUAGUCCAGGGAGUGGCGAAAGUCACACAAACCGG [C82G A111G A120G A145G C150A] | 0.0101
GUGCCUUGCGCCGGGAAACCACGCAAGGGAUGGUGUCAAAUUCGGCGAAACCUAAGCGCCCGCCCGGGCGUAUGGCAACGCGGAGCCAAGCUUCGGCGCCUGCGCCGAUGGAGGUGUAGGGACUAGACGGCACCCACCUAAGGCGAACGGUAUGGUGAAGGCAUAGUCCAGGGAGUGGCGAAAGUCACACAAACCGG [C82G A111G A120G A145G C150G] | 0.00815
GUGCCUUGCGCCGGGAAACCACGCAAGGGAUGGUGUCAAAUUCGGCGAAACCUAAGCGCCCGCCCGGGCGUAUGGCAACGCGGAGCCAAGCUUCGGCGCCUGCGCCGAUGGAGGUGUAGGGACUAGACGGCACCCACCUAAGGCGAACGGUAUGGUGAAGGCAUAGUCGAGGGAGUGGCGAAAGUCACACAAACCGG [C82G A111G A120G A145G C150G C169G] | 0.00845
